Reference: paper PMC12657241

Key:
[1] = target: wild-type OppA, periplasmic binding protein of the oligopeptide permease (Opp) ABC transporter (E. coli) (UniProt P23843); assay: MST
[2] = target: OppA-iso, evolved OppA variant (E. coli) (UniProt P23843); assay: MST

SisoK, isopeptide-linked dipeptide (serine on the ε-amine of lysine)
Kd [1]: 300 µM
Kd [2]: 300 µM

G-SisoK, isopeptide-linked tripeptide
Kd [1]: 50 µM
Kd [2]: 37 µM

linear GSK tripeptide
Kd [1]: 71 µM
Kd [2]: 275 µM
